{"source": "patent US20260184748A1", "about": "(University of Pennsylvania, published 2026)", "experiment_in_all_cases": "cell-based or functional assay", "key": {"HTR1E": {"target": "HTR1E (UniProt P28566 1-365)", "sequence (P28566 whole entry)": "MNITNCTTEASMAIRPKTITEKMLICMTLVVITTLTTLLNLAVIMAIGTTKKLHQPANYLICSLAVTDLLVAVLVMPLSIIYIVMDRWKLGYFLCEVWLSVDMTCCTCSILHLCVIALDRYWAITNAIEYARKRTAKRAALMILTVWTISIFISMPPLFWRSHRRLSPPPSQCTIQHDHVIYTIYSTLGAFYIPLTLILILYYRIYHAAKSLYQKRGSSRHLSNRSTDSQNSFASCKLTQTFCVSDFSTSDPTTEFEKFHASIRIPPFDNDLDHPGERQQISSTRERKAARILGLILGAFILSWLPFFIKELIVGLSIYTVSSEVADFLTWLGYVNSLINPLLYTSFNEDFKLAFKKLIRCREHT"}, "AGTR1": {"target": "T1, AGTR1 (UniProt P30556 1-359)", "T1 sequence (looked up)": "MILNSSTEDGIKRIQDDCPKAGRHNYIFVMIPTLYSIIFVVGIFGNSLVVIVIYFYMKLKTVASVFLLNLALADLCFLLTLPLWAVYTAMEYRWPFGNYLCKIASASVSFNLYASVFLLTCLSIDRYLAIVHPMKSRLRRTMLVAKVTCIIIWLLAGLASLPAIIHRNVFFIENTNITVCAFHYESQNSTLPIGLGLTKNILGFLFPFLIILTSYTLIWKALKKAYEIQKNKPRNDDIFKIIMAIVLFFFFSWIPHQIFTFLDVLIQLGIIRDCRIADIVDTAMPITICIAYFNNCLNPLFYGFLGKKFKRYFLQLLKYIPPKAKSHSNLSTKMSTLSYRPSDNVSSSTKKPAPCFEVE"}, "MTNR1A": {"target": "MTNR1A (UniProt P48039 1-350)", "sequence (P48039 whole entry)": "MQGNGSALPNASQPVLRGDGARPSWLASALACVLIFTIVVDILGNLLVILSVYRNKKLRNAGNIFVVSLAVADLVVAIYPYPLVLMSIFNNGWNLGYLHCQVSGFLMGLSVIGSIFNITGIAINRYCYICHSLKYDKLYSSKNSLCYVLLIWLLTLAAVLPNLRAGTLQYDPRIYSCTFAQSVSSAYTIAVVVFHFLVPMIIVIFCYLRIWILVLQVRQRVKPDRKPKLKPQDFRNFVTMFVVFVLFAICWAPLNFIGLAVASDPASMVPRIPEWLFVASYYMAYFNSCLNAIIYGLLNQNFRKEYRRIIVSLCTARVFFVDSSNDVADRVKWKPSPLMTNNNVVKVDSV"}, "OPRK1": {"target": "OPRK1 (UniProt P41145 1-380)", "sequence (P41145 whole entry)": "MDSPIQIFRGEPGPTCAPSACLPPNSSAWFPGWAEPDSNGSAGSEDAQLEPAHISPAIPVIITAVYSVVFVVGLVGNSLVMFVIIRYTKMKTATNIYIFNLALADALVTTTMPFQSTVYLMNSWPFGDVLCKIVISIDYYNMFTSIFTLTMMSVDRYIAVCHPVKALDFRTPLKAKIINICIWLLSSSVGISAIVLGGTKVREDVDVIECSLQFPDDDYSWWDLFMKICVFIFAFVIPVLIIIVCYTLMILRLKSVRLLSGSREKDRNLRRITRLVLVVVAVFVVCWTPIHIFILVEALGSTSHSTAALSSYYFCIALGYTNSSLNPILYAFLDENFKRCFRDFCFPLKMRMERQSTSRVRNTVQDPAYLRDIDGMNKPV"}, "OPRM1": {"target": "OPRM1 (UniProt P35372 1-400)", "sequence (P35372 whole entry)": "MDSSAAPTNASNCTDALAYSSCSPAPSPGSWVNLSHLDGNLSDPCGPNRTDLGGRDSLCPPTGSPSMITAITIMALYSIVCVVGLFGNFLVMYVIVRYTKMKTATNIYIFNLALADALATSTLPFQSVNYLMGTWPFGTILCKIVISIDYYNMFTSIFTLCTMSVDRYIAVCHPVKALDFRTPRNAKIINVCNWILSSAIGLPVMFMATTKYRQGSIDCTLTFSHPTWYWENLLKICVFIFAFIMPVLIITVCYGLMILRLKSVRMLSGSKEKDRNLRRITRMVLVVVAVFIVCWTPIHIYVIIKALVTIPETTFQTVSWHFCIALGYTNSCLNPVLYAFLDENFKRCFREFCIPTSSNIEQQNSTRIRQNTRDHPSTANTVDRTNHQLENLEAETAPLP"}, "P2RY1": {"target": "P2RY1 (UniProt P47900 1-373)", "sequence (P47900 whole entry)": "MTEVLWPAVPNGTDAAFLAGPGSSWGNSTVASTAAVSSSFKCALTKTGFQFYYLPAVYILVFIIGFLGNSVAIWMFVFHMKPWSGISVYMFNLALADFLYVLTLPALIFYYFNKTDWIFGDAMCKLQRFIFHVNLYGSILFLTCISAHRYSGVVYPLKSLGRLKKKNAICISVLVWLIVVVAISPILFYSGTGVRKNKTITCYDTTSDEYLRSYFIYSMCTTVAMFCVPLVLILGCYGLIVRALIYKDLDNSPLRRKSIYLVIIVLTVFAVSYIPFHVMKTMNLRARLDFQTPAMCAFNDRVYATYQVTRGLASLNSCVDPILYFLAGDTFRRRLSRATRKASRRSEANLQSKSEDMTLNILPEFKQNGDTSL"}, "AVPR1B": {"target": "T2, AVPR1B (UniProt P47901 1-424)", "T2 sequence (looked up)": "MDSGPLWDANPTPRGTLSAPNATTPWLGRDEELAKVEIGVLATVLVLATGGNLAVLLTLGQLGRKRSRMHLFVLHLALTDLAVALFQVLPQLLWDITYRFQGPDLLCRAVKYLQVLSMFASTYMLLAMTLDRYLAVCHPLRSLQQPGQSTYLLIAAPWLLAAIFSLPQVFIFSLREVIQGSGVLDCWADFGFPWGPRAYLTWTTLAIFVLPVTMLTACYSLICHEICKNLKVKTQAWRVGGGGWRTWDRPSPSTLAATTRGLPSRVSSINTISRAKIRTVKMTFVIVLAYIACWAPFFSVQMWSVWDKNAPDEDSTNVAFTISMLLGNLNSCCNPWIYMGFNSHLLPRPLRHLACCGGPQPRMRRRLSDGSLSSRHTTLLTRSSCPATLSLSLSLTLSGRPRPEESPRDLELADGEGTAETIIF"}, "PTAFR": {"target": "PTAFR (UniProt P25105 1-342)", "sequence (P25105 whole entry)": "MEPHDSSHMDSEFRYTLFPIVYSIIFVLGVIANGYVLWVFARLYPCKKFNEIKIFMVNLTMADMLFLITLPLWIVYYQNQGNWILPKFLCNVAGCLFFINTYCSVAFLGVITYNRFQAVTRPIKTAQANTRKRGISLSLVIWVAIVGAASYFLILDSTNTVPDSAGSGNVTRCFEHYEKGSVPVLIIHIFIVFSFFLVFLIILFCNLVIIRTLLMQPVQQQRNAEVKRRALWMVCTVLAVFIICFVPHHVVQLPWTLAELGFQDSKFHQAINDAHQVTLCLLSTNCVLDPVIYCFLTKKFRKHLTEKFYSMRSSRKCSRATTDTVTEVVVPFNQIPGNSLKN"}, "[1]": {"target": "T3, relaxin-3 receptor (RXFP3) (UniProt Q9NSD7 1-469)", "T3 sequence (looked up)": "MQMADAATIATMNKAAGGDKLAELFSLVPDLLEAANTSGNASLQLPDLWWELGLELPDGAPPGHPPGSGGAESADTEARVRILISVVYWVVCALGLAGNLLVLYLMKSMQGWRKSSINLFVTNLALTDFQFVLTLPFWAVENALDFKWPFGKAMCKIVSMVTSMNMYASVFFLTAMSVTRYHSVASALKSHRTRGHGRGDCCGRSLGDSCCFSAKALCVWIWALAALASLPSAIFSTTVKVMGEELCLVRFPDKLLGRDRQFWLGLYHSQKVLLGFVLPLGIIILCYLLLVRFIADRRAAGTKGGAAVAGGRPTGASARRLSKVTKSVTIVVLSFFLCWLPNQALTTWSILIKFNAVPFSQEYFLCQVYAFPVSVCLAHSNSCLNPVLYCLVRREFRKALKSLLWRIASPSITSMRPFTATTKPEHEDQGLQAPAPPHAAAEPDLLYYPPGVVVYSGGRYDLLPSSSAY"}, "CALCRL-RAMP3": {"target": "CALCRL-RAMP3 (UniProt Q16602 23-461; O60896 24-148)", "sequence (Q16602 23-461 limits assumed, chain 1 of 2)": "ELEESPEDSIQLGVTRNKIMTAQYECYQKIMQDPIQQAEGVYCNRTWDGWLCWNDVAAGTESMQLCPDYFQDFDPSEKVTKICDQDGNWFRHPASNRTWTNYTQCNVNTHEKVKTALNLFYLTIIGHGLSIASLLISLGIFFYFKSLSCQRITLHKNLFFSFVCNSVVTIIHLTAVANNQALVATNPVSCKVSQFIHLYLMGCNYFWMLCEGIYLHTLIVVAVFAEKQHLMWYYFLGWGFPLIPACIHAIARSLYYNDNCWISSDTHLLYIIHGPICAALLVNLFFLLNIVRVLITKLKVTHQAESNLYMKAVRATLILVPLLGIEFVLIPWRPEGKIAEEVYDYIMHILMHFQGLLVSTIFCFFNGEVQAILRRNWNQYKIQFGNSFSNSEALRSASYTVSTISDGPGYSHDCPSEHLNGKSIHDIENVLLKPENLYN", "sequence (O60896 24-148 limits assumed, chain 2 of 2)": "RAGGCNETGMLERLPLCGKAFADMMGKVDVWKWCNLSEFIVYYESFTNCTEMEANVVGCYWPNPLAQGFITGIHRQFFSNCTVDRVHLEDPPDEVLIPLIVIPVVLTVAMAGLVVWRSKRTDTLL"}, "CCR6": {"target": "T4, CCR6 (UniProt P51684 1-374)", "T4 sequence (looked up)": "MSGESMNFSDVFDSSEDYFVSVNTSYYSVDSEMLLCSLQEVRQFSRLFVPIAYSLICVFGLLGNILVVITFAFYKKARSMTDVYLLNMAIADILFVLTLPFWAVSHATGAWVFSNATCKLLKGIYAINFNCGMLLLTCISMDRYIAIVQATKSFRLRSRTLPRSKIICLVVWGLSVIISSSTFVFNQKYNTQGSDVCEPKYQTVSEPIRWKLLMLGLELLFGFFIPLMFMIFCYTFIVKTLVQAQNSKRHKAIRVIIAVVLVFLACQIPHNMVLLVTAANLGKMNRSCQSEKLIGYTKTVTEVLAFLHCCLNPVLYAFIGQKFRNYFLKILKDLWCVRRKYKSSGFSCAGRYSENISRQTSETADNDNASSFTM"}, "CHRM3": {"target": "CHRM3 (UniProt P20309 1-590)", "sequence (P20309 whole entry)": "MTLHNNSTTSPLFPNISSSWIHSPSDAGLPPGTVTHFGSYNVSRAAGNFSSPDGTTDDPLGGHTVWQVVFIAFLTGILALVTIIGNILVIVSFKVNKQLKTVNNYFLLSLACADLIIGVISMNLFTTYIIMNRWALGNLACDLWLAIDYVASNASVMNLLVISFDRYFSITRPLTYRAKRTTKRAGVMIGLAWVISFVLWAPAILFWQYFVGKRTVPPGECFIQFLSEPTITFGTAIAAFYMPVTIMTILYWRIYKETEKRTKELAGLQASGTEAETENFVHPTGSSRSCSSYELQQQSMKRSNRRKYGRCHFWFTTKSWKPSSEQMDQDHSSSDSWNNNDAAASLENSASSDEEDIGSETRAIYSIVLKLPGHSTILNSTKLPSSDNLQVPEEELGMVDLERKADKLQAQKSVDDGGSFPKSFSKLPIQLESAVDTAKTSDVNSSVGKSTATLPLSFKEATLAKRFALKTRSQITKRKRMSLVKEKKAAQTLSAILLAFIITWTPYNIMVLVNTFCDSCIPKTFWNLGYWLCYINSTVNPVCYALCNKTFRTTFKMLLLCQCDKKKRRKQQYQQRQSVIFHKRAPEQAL"}, "DRD1": {"target": "DRD1 (UniProt P21728 1-446)", "sequence (P21728 whole entry)": "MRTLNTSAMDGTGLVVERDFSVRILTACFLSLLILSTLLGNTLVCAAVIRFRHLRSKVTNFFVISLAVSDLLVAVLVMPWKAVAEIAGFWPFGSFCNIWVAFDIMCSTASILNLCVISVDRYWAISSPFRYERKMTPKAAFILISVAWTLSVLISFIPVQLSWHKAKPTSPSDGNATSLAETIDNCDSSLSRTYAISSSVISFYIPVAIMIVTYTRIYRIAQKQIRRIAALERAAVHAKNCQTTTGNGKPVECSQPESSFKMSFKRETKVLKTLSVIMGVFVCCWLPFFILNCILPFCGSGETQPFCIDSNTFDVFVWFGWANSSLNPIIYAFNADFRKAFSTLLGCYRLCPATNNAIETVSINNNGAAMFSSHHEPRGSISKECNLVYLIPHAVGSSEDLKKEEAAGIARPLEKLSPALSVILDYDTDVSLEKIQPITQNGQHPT"}, "GPR109B": {"target": "GPR109B (UniProt P49019 1-387)", "sequence (P49019 whole entry)": "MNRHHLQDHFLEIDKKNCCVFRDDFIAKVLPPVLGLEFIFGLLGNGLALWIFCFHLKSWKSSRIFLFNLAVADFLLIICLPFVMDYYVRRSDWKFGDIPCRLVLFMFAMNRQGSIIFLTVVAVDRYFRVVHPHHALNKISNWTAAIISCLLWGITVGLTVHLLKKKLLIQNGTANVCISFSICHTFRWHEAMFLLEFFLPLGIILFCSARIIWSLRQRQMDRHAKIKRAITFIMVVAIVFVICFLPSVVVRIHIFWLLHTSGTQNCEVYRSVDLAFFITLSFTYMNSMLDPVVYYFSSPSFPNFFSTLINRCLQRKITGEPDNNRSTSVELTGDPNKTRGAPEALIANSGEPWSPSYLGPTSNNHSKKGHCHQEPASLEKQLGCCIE"}, "HCRTR1": {"target": "T5, HCRTR1 (UniProt O43613 1-425)", "T5 sequence (looked up)": "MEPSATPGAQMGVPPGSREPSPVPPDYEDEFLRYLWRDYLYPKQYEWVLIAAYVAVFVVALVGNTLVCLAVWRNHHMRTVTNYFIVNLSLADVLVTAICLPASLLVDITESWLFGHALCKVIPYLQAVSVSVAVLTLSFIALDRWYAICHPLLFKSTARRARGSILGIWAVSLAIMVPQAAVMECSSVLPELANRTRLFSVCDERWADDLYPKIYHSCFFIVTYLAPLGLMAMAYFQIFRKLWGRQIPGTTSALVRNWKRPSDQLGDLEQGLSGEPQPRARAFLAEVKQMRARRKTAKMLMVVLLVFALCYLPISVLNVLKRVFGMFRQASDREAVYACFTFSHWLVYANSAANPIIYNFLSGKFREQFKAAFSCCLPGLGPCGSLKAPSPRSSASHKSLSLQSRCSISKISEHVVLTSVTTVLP"}}, "note": "Where no end group is shown, it is not given here.", "data": [{"binder": "QATVGDVNTDRPGLLDLK (also: synthesised on Rink amide resin, C-terminal amide not given here outright)", "note": "[octadecaneuropeptide (ODN)]", "values": [{"measurement": "% Activity, arrestin, antagonist mode, 2.5 uM", "setting": "HTR1E", "value": -3.8, "unit": "%"}, {"measurement": "% Activity, arrestin, antagonist mode, 2.5 uM", "setting": "AGTR1", "value": -8.5, "unit": "%"}, {"measurement": "% Activity, arrestin, antagonist mode, 2.5 uM", "setting": "MTNR1A", "value": 2.2, "unit": "%"}, {"measurement": "% Activity, arrestin, antagonist mode, 2.5 uM", "setting": "OPRK1", "value": -4.5, "unit": "%"}, {"measurement": "% Activity, arrestin, antagonist mode, 2.5 uM", "setting": "OPRM1", "value": -21.1, "unit": "%"}, {"measurement": "% Activity, arrestin, antagonist mode, 2.5 uM", "setting": "P2RY1", "value": -6.4, "unit": "%"}, {"measurement": "% Activity, arrestin, antagonist mode, 2.5 uM", "setting": "AVPR1B", "value": -25.7, "unit": "%"}, {"measurement": "% Activity, arrestin, antagonist mode, 2.5 uM", "setting": "PTAFR", "value": -7.3, "unit": "%"}, {"measurement": "% Activity, arrestin, antagonist mode, 2.5 uM", "setting": "[1]", "value": 31.4, "unit": "%"}, {"measurement": "% Activity, arrestin, antagonist mode, 2.5 uM", "setting": "CALCRL-RAMP3", "value": -3.5, "unit": "%"}, {"measurement": "% Activity, arrestin, antagonist mode, 2.5 uM", "setting": "CCR6", "value": -14.8, "unit": "%"}, {"measurement": "% Activity, arrestin, antagonist mode, 2.5 uM", "setting": "CHRM3", "value": 12.6, "unit": "%"}, {"measurement": "% Activity, arrestin, antagonist mode, 2.5 uM", "setting": "DRD1", "value": 5.7, "unit": "%"}, {"measurement": "% Activity, arrestin, antagonist mode, 2.5 uM", "setting": "GPR109B", "value": -17, "unit": "%"}, {"measurement": "% Activity, arrestin, antagonist mode, 2.5 uM", "setting": "HCRTR1", "value": -1.7, "unit": "%"}]}]}
